According to patent publication US20120220530A1 (NOVOZYMES BIOPHARMA DK A S, published 2012):
Values belong to the binder of their own block, whether it stands above or below them.

What was measured:
mouse serum albumin = target: T1, mouse serum albumin (mouse, UniProt P07724 25-608); experiment: SPR, FcRn immobilized, 1:1 Langmuir model
T1 construct: mature; also called MSA; MouseSA
Procedure: SPR analyses were performed on a BIAcore 3000 instrument (GE Healthcare) using CM5 chips and immobilization of smFcRn-GST and shFcRn-GST variants or smFcRn was performed using the amine coupling kit (GE Healthcare). Protein samples (10 μg/ml) were injected in 10 mM sodium acetate at pH 4.5 (GE Healthcare), all as described by the manufacturer. Unreacted moieties on the surface were blocked with 1 M ethanolamine. For all experiments, phosphate buffer (67 mM phosphate buffer, 0.15 M NaCl, 0.005% TWEEN® 20) at pH 6.0 or pH 7.4, or HBS-P buffer (0.01 M HEPES, 0.15 M NaCl, 0.005% surfactant P20) at pH 7.4 were used as running buffer or dilution buffer. Kinetic measurements were performed using a low density immobilized surface (100-200 resonance units (RU)). […] In all cases, to correct for nonspecific binding and bulk buffer effects, responses obtained from the control surfaces and blank injections were subtracted from each interaction curve. Kinetic rate values were calculated using predefined models (Langmuir 1:1 ligand model, heterogeneous ligand model and steady state affinity model) provided by the BIAevaluation 4.1 software.
The KD's were generated using the B|Aevaluation 4.1 software) A Langmuir 1:1 ligand model was used throughout. The kinetic values represent the average or triplicates. ND means: Not determined. NA means: Not acquired

[1] = target: T2, glutathione-S-transferase (GST)-fused shFcRn (human, UniProt P55899 24-290; P61769 21-119, limits assumed); experiment: ELISA: albumin coated at the concentration on the axis, shFcRn-GST in solution, pH 6.0
T2 construct: Made as in Berntzen et al. 2005 / FEBS J. 2008; also called shFcRn-GST; GST-tagged shFcRn; not shown: GST tag
Procedure: One hundred μl of the substrate tetramethylbenzidine (TMB) (Calbiochem) was added to each well and incubated for 45 min before 100 μl of 0.25 M HCl was added. The absorbance was measured at 450 nm using a Sunrise TECAN spectrophotometer (TECAN, Maennedorf, Switzerland). The same ELISA was repeated with PBS/T pH 7.4.
Commercially available animal albumin (either Sigma-Aldrich or Calbiochem) were further purified as described in Andersen et al (2010). J. Biol. Chem. 285, (7), 4826-4836.

- Kd (mouse serum albumin): 9.3 µM
- koff (mouse serum albumin): 0.0394 s⁻¹
- kon (mouse serum albumin): 4200 M⁻¹ s⁻¹
B1: soluble mouse FcRn (smFcRn) (receptor)
chain 1: SETRPPLMYHLTAVSNPSTGLPSFWATGWLGPQQYLTYNSLRQEADPCGAWMWENQVSWYWEKETTDLKSKEQLFLEALKTLEKILNGTYTLQGLLGCELASDNSSVPTAVFALNGEEFMKFNPRIGNWTGEWPETEIVANLWMKQPDAARKESEFLLNSCPERLLGHLERGRRNLEWKEPPSMRLKARPGNSGSSVLTCAAFSFYPPELKFRFLRNGLASGSGNCSTGPNGDGSFHAWSLLEVKRGDEHHYQCQVEHEGLAQPLTVDLDSSARSS
chain 2: IQKTPQIQVYSRHPPENGKPNILNCYVTQFHPPHIEIQMLKNGKKIPKVEMSDMSFSKDWSFYILAHTEFTPTETDTYACRVKHASMAEPKTVYWDRDM

- EC50 (read off the curve) [1]: ~1 µg/mL
B2: donkey serum albumin (ligand, UniProt Q5XLE4 25-607, looked up)
chain: DTHKSEIAHRFNDLGEKHFKGLVLVAFSQYLQQCPFEDHVKLVNEVTEFAKKCAADESAENCDKSLHTLFGDKLCTVATLRATYGELADCCEKQEPERNECFLTHKDDHPNLPKLKPEPDAQCAAFQEDPDKFLGKYLYEVARRHPYFYGPELLFHAEEYKADFTECCPADDKAGCLIPKLDALKERILLSSAKERLKCSSFQKFGERAFKAWSVARLSQKFPKADFAEVSKIVTDLTKVHKECCHGDLLECADDRADLTKYICEHQDSISGKLKACCDKPLLQKSHCIAEVKEDDLPSDLPALAADFAEDKEICKHYKDAKDVFLGTFLYEYSRRHPDYSVSLLLRIAKTYEATLEKCCAEADPPACYATVFDQFTPLVEEPKSLVKKNCDLFEEVGEYDFQNALIVRYTKKAPQVSTPTLVEIGRTLGKVGSRCCKLPESERLPCSENHLALALNRLCVLHEKTPVSEKITKCCTDSLAERRPCFSALELDEGYIPKEFKAETFTFHADICTLPEDEKQIKKQSALAELVKHKPKATKEQLKTVLGNFSAFVAKCCGAEDKEACFAEEGPKLVASSQLALA
notes: mature
